According to patent CN117836321A:

Molecular target: VV B5单体蛋白 (Wyeth牛痘毒株的B5序列, C-末端AVI标签和HIS6标签) (牛痘病毒 Wyeth毒株)

B1: A048亲本抗B5 hIgG1 (antibody, V domains shown)
VH: QEQLEESGGGLVKPEGSLTLTCTASGFSFSSSYYMCWVRQAPGRGLEWIACIYTSSGSAYYANWAKGRFTISRTSSTTVTLQMTRLTAADTATYFCVRNAVGSSYYLYLWGPGTLVTVSS
VL: AQVLTQTPSPVSAAVGGTVTISCQASQSVAGNNYLSWYQQKPGQPPNLLIYSVSTLASGVPSRFKGSGSGTQFTLTISDLECDDAATYYCQGYYNDGIWAFGGGTEVVVK
Kd: 9.5 nM
